Assay results from the supplement of paper PMC5998384.

Tests used:
[1] = test system: HeLa Kyoto; assay: melting temperature (median over replicates), in situ; higher = more thermally stable
[2] = test system: HeLa Kyoto; assay: thermal stability score vs G1/S (z-score of summed log2 fold changes over temperatures); higher = more thermally stable than in G1/S
[3] = test system: HeLa Kyoto; assay: solubility change mitosis vs G1/S (difference of NP-40 vs SDS log2 ratios) (log2 ratio difference); higher = more soluble in mitosis
[4] = test system: HeLa Kyoto; assay: solubility in G1/S (NP-40 vs SDS abundance) (log2 ratio); higher = more soluble; settings: cell cycle stage: G1/S
[5] = cell cycle stage: early G1 (4.5 h after nocodazole release)
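For melting temperature (median over replicates), in situ in this document: HeLa Kyoto cells synchronized by double thymidine or nocodazole block, proteins quantified by TMT10plex mass spectrometry, three independent biological replicates.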
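For solubility change mitosis vs G1/S (difference of NP-40 vs SDS log2 ratios) in this document: synchronized HeLa Kyoto cells (double thymidine block for G1/S, nocodazole release for mitosis), protein amounts in NP-40 versus SDS lysates quantified by mass spectrometry, three biological replicates.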
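For solubility in G1/S (NP-40 vs SDS abundance) in this document: HeLa Kyoto cells arrested at G1/S by double thymidine block, proteins quantified by TMT10plex mass spectrometry in mild NP-40 versus SDS extracts, three biological replicates.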
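For thermal stability score vs G1/S (z-score of summed log2 fold changes over temperatures) in this document: synchronized HeLa Kyoto cells, proteins quantified by TMT10plex mass spectrometry, three biological replicates, mitosis taken 0.5 h after nocodazole release, G1/S directly after double thymidine block.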

## MAAAFEASGALAAVATAMPAEHVAVQVPAPEPTPGPVRILRTAQDLSSPRTRTGDVLLAEPADFESLLLSRPVLEGLRAAGFERPSPVQLKAIPLGRCGLDLIVQAKSGTGKTCVFSTIALDSLVLENLSTQILILAPTREIAVQIHSVITAIGIKMEGLECHVFIGGTPLSQDKTRLKKCHIAVGSPGRIKQLIELDYLNPGSIRLFILDEADKLLEEGSFQEQINWIYSSLPASKQMLAVSATYPEFLANALTKYMRDPTFVRLNSSDPSLIGLKQYYKVVNSYPLAHKVFEEKTQHLQELFSRIPFNQALVFSNLHSRAQHLADILSSKGFPAECISGNMNQNQRLDAMAKLKHFHCRVLISTDLTSRGIDAEKVNLVVNLDVPLDWETYMHRIGRAGRFGTLGLTVTYCCRGEEENMMMRIAQKCNINLLPLPDPIPSGLMEECVDWDVEVKAAVHTYGIASVPNQPLKKQIQKIERTLQIQKAHGDHMASSRNNSVSGLSVKSKNNTKQKLPVKSHSECGIIEKATSPKELGCDRQSEEQMKNSVQTPVENSTNSQHQVKEALPVSLPQIPCLSSFKIHQPYTLTFAELVEDYEHYIKEGLEKPVEIIRHYTGPGDQTVNPQNGFVRNKVIEQRVPVLASSSQSGDSESDSDSYSSRTSSQSKGNKSYLEGSSDNQLKDSESTPVDDRISLEQPPNGSDTPNPEKYQESPGIQMKTRLKEGASQRAKQSRRNLPRRSSFRLQTEAQEDDWYDCHREIRLSFSDTYQDYEEYWRAYYRAWQEYYAAASHSYYWNAQRHPSWMAAYHMNTIYLQEMMHSNQ [DDX20]
[1]; cell cycle stage: G1/S
  melting temperature: 47.5 °C
[1]; cell cycle stage: mitosis
  melting temperature: 48.8 °C
[2]; [5]
  thermal stability score: -0.14
[2]; cell cycle stage: mitosis
  thermal stability score: 3.36
[3]
  solubility change mitosis (log2): 0.084
[4]
  solubility in G1/S (log2): -0.119

## MAQAGVVGEVTQVLCAAGGALELPELRRRLRMGLSADALERLLRQRGRFVVAVRAGGAAAAPERVVLAASPLRLCRAHQGSKPGCVGLCAQLHLCRFMVYGACKFLRAGKNCRNSHSLTTEHNLSVLRTHGVDHLSYNELCQLLFQNDPWLLPEICQHYNKGDGPHGSCAFQKQCIKLHICQYFLQGECKFGTSCKRSHDFSNSENLEKLEKLGMSSDLVSRLPTIYRNAHDIKNKSSAPSRVPPLFVPQGTSERKDSSGSVSPNTLSQEEGDQICLYHIRKSCSFQDKCHRVHFHLPYRWQFLDRGKWEDLDNMELIEEAYCNPKIERILCSESASTFHSHCLNFNAMTYGATQARRLSTASSVTKPPHFILTTDWIWYWSDEFGSWQEYGRQGTVHPVTTVSSSDVEKAYLAYCTPGSDGQAATLKFQAGKHNYELDFKAFVQKNLVYGTTKKVCRRPKYVSPQDVTTMQTCNTKFPGPKSIPDYWDSSALPDPGFQKITLSSSSEEYQKVWNLFNRTLPFYFVQKIERVQNLALWEVYQWQKGQMQKQNGGKAVDERQLFHGTSAIFVDAICQQNFDWRVCGVHGTSYGKGSYFARDAAYSHHYSKSDTQTHTMFLARVLVGEFVRGNASFVRPPAKEGWSNAFYDSCVNSVSDPSIFVIFEKHQVYPEYVIQYTTSSKPSVTPSILLALGSLFSSRQ [PARP12]
[1]; cell cycle stage: G1/S
  melting temperature: 49.2 °C
[1]; cell cycle stage: mitosis
  melting temperature: 48.1 °C
[2]; [5]
  thermal stability score: 1.19
[2]; cell cycle stage: mitosis
  thermal stability score: 1.46
[3]
  solubility change mitosis (log2): -0.0418
[4]
  solubility in G1/S (log2): -0.201

## MEDLGENTMVLSTLRSLNNFISQRVEGGSGLDISTSAPGSLQMQYQQSMQLEERAEQIRSKSHLIQVEREKMQMELSHKRARVELERAASTSARNYEREVDRNQELLTRIRQLQEREAGAEEKMQEQLERNRQCQQNLDAASKRLREKEDSLAQAGETINALKGRISELQWSVMDQEMRVKRLESEKQELQEQLDLQHKKCQEANQKIQELQASQEARADHEQQIKDLEQKLSLQEQDAAIVKNMKSELVRLPRLERELKQLREESAHLREMRETNGLLQEELEGLQRKLGRQEKMQETLVGLELENERLLAKLQSWERLDQTMGLSIRTPEDLSRFVVELQQRELALKDKNSAVTSSARGLEKARQQLQEELRQVSGQLLEERKKRETHEALARRLQKRVLLLTKERDGMRAILGSYDSELTPAEYSPQLTRRMREAEDMVQKVHSHSAEMEAQLSQALEELGGQKQRADMLEMELKMLKSQSSSAEQSFLFSREEADTLRLKVEELEGERSRLEEEKRMLEAQLERRALQGDYDQSRTKVLHMSLNPTSVARQRLREDHSQLQAECERLRGLLRAMERGGTVPADLEAAAASLPSSKEVAELKKQVESAELKNQRLKEVFQTKIQEFRKACYTLTGYQIDITTENQYRLTSLYAEHPGDCLIFKATSPSGSKMQLLETEFSHTVGELIEVHLRRQDSIPAFLSSLTLELFSRQTVA [MAD1L1]
[1]; cell cycle stage: G1/S
  melting temperature: 48.4 °C
[1]; cell cycle stage: mitosis
  melting temperature: 47.8 °C
[2]; [5]
  thermal stability score: 0.414
[2]; cell cycle stage: mitosis
  thermal stability score: 0.454
[3]
  solubility change mitosis (log2): -0.0768
[4]
  solubility in G1/S (log2): 0.361

## MAREMTILGSAVLTLLLAGYLAQQYLPLPTPKVIGIDLGTTYCSVGVFFPGTGKVKVIPDENGHISIPSMVSFTDNDVYVGYESVELADSNPQNTIYDAKRFIGKIFTAEELEAEIGRYPFKVLNKNGMVEFSVTSNETITVSPEYVGSRLLLKLKEMAEAYLGMPVANAVISVPAEFDLKQRNSTIEAANLAGLKILRVINEPTAAAMAYGLHKADVFHVLVIDLGGGTLDVSLLNKQGGMFLTRAMSGNNKLGGQDFNQRLLQYLYKQIYQTYGFVPSRKEEIHRLRQAVEMVKLNLTLHQSAQLSVLLTVEEQDRKEPHSSDTELPKDKLSSADDHRVNSGFGRGLSDKKSGESQVLFETEISRKLFDTLNEDLFQKILVPIQQVLKEGHLEKTEIDEVVLVGGSTRIPRIRQVIQEFFGKDPNTSVDPDLAVVTGVAIQAGIDGGSWPLQVSALEIPNKHLQKTNFN [HSPA13]
[1]; cell cycle stage: G1/S
  melting temperature: 54.6 °C
[1]; cell cycle stage: mitosis
  melting temperature: 53.3 °C
[2]; [5]
  thermal stability score: 4.12
[2]; cell cycle stage: mitosis
  thermal stability score: 4.92
[3]
  solubility change mitosis (log2): 0.00641
[4]
  solubility in G1/S (log2): 0.088

## MSGGASATGPRRGPPGLEDTTSKKKQKDRANQESKDGDPRKETGSRYVAQAGLEPLASGDPSASASHAAGITGSRHRTRLFFPSSSGSASTPQEEQTKEGACEDPHDLLATPTPELLLDWRQSAEEVIVKLRVGVGPLQLEDVDAAFTDTDCVVRFAGGQQWGGVFYAEIKSSCAKVQTRKGSLLHLTLPKKVPMLTWPSLLVEADEQLCIPPLNSQTCLLGSEENLAPLAGEKAVPPGNDPVSPAMVRSRNPGKDDCAKEEMAVAADAATLVDEPESMVNLAFVKNDSYEKGPDSVVVHVYVKEICRDTSRVLFREQDFTLIFQTRDGNFLRLHPGCGPHTTFRWQVKLRNLIEPEQCTFCFTASRIDICLRKRQSQRWGGLEAPAARVGGAKVAVPTGPTPLDSTPPGGAPHPLTGQEEARAVEKDKSKARSEDTGLDSVATRTPMEHVTPKPETHLASPKPTCMVPPMPHSPVSGDSVEEEEEEEKKVCLPGFTGLVNLGNTCFMNSVIQSLSNTRELRDFFHDRSFEAEINYNNPLGTGGRLAIGFAVLLRALWKGTHHAFQPSKLKAIVASKASQFTGYAQHDAQEFMAFLLDGLHEDLNRIQNKPYTETVDSDGRPDEVVAEEAWQRHKMRNDSFIVDLFQGQYKSKLVCPVCAKVSITFDPFLYLPVPLPQKQKVLPVFYFAREPHSKPIKFLVSVSKENSTASEVLDSLSQSVHVKPENLRLAEVIKNRFHRVFLPSHSLDTVSPSDTLLCFELLSSELAKERVVVLEVQQRPQVPSVPISKCAACQRKQQSEDEKLKRCTRCYRVGYCNQLCQKTHWPDHKGLCRPENIGYPFLVSVPASRLTYARLAQLLEGYARYSVSVFQPPFQPGRMALESQSPGCTTLLSTGSLEAGDSERDPIQPPELQLVTPMAEGDTGLPRVWAAPDRGPVPSTSGISSEMLASGPIEVGSLPAGERVSRPEAAVPGYQHPSEAMNAHTPQFFIYKIDSSNREQRLEDKGDTPLELGDDCSLALVWRNNERLQEFVLVASKELECAEDPGSAGEAARAGHFTLDQCLNLFTRPEVLAPEEAWYCPQCKQHREASKQLLLWRLPNVLIVQLKRFSFRSFIWRDKINDLVEFPVRNLDLSKFCIGQKEEQLPSYDLYAVINHYGGMIGGHYTACARLPNDRSSQRSDVGWRLFDDSTVTTVDESQVVTRYAYVLFYRRRNSPVERPPRAGHSEHHPDLGPAAEAAASQASRIWQELEAEEEPVPEGSGPLGPWGPQDWVGPLPRGPTTPDEGCLRYFVLGTVAALVALVLNVFYPLVSQSRWR [USP19]
[1]; cell cycle stage: G1/S
  melting temperature: 51.1 °C
[1]; cell cycle stage: mitosis
  melting temperature: 51 °C
[2]; [5]
  thermal stability score: -0.212
[2]; cell cycle stage: mitosis
  thermal stability score: -0.109
[3]
  solubility change mitosis (log2): -0.0948
[4]
  solubility in G1/S (log2): -0.0565

## MPLTGVEPARMNRKKGDKGFESPRPYKLTHQVVCINNINFQRKSVVGFVELTIFPTVANLNRIKLNSKQCRIYRVRINDLEAAFIYNDPTLEVCHSESKQRNLNYFSNAYAAAVSAVDPDAGNGELCIKVPSELWKHVDELKVLKIHINFSLDQPKGGLHFVVPSVEGSMAERGAHVFSCGYQNSTRFWFPCVDSYSELCTWKLEFTVDAAMVAVSNGDLVETVYTHDMRKKTFHYMLTIPTAASNISLAIGPFEILVDPYMHEVTHFCLPQLLPLLKHTTSYLHEVFEFYEEILTCRYPYSCFKTVFIDEAYVEVAAYASMSIFSTNLLHSAMIIDETPLTRRCLAQSLAQQFFGCFISRMSWSDEWVLKGISGYIYGLWMKKTFGVNEYRHWIKEELDKIVAYELKTGGVLLHPIFGGGKEKDNPASHLHFSIKHPHTLSWEYYSMFQCKAHLVMRLIENRISMEFMLQVFNKLLSLASTASSQKFQSHMWSQMLVSTSGFLKSISNVSGKDIQPLIKQWVDQSGVVKFYGSFAFNRKRNVLELEIKQDYTSPGTQKYVGPLKVTVQELDGSFNHTLQIEENSLKHDIPCHSKSRRNKKKKIPLMNGEEVDMDLSAMDADSPLLWIRIDPDMSVLRKVEFEQADFMWQYQLRYERDVVAQQESILALEKFPTPASRLALTDILEQEQCFYRVRMSACFCLAKIANSMVSTWTGPPAMKSLFTRMFCCKSCPNIVKTNNFMSFQSYFLQKTMPVAMALLRDVHNLCPKEVLTFILDLIKYNDNRKNKFSDNYYRAEMIDALANSVTPAVSVNNEVRTLDNLNPDVRLILEEITRFLNMEKLLPSYRHTITVSCLRAIRVLQKNGHVPSDPALFKSYAEYGHFVDIRIAALEAVVDYTKVDRSYEELQWLLNMIQNDPVPYVRHKILNMLTKNPPFTKNMESPLCNEALVDQLWKLMNSGTSHDWRLRCGAVDLYFTLFGLSRPSCLPLPELGLVLNLKEKKAVLNPTIIPESVAGNQEAANNPSSHPQLVGFQNPFSSSQDEEEIDMDTVHDSQAFISHHLNMLERPSTPGLSKYRPASSRSALIPQHSAGCDSTPTTKPQWSLELARKGTGKEQAPLEMSMHPAASAPLSVFTKESTASKHSDHHHHHHHEHKKKKKKHKHKHKHKHKHDSKEKDKEPFTFSSPASGRSIRSPSLSD [TAF2]
[1]; cell cycle stage: G1/S
  melting temperature: 49.6 °C
[1]; cell cycle stage: mitosis
  melting temperature: 50.2 °C
[2]; [5]
  thermal stability score: 0.286
[2]; cell cycle stage: mitosis
  thermal stability score: 0.175
[3]
  solubility change mitosis (log2): 0.123
[4]
  solubility in G1/S (log2): -0.657

## MAAQRPLRVLCLAGFRQSERGFREKTGALRKALRGRAELVCLSGPHPVPDPPGPEGARSDFGSCPPEEQPRGWWFSEQEADVFSALEEPAVCRGLEESLGMVAQALNRLGPFDGLLGFSQGAALAALVCALGQAGDPRFPLPRFILLVSGFCPRGIGFKESILQRPLSLPSLHVFGDTDKVIPSQESVQLASQFPGAITLTHSGGHFIPAAAPQRQAYLKFLDQFAE [OVCA2]
[1]; cell cycle stage: G1/S
  melting temperature: 49.8 °C
[1]; cell cycle stage: mitosis
  melting temperature: 51.5 °C
[2]; [5]
  thermal stability score: -1.18
[2]; cell cycle stage: mitosis
  thermal stability score: -0.0698
[3]
  solubility change mitosis (log2): 0.0456
[4]
  solubility in G1/S (log2): 0.171
